In this series the test system is Roquin-1 (aa 2-441);NUFIP2 (aa 255-411) (mouse;human). Description: EMSA. As to conditions: 10 mM HEPES pH 7.5, 150 mM NaCl, 2 mM MgCl2, 4% glycerol, tRNA 30 ug/mL, 5 nM labeled RNA, 30 min at 25 °C; native 4% TBE PAGE.

Our source for the Kd values is paper PMC5775257.

For the substance “ICOS 3'-UTR tandem cis-element (nt 2183-2271)”, the equilibrium dissociation constant (Kd) (usually the constant that tells how readily two partners part at equilibrium) was 11.3 nM.

In turn, “Ox40 3'-UTR tandem element (nt 1064-1126)” gave an equilibrium dissociation constant (Kd) of 10.7 nM.
